Where two headings read alike, the source gives them in different places. Where a SMILES comes first, the peptide text is derived from it. Where no end group is shown, it is not given here.

Assay [1] has as its target T1, porcine pancreatic lipase (Sus scrofa, UniProt P00591).
T1 construct: purchased Sigma Co., Ltd
T1 sequence (P00591 1-450): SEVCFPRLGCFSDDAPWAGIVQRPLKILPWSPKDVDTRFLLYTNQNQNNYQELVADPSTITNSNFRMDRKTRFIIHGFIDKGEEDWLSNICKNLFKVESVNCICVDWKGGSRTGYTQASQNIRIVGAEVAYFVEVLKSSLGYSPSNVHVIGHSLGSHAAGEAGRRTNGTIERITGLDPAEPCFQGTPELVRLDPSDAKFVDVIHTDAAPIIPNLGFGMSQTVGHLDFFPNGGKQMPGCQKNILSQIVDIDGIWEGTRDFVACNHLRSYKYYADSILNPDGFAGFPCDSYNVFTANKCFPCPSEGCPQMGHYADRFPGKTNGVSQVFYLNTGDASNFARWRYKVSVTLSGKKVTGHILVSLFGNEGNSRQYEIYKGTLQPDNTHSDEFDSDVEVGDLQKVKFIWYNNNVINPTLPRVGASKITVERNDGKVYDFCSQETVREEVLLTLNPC
Nature of the assay: Assay of lipase inhibitory activity (olive oil emulsion with sodium cholate, Tris buffer pH 6.8). The assay is classed as biochemical. The note with it: for Activity of porcine pancreatic lipase: peptide solution 1 mg/ml in distilled water, control = 100. As to the method:
250 mg of an olive oil, 21.5 mg of sodium cholate as a bile acid component and 30 mg of phosphatidylcholine were added to 5 ml of a 200 mM Tris buffer solution at pH 6.8 (called hereafter "Tris buffer").
(§1) The mixture was ultrasonicated to prepare an olive oil emulsion.
Porcine pancreatic lipase (manufactured by Sigma Co., Ltd.) was added to Tris buffer to prepare an enzyme solution containing 100 units porcine pancreatic lipase per ml.
(§2) 100 μl of an olive oil emulsion as prepared above were used as a substrate.
(§3) 50 μl of Tris buffer was added to the substrate to prepare an emulsion for control sample. Each 50 ml of the protein(polypeptide)-containing solutions as prepared above was added to 100 μl of the substrate to prepare six emulsions for test sample. All of the emulsions were incubated for 5 min. To each of those emulsions was added 50 μl of the lipase solution as prepared above. The resulting mixture was incubated at 37° C. for one hour, subsequently to which were added 3 ml of the same extraction solvent as used in Example 1. After being shaken for 5 min., the mixture was centrifuged at 3000 rpm for 5 min. The upper layer was removed with an aspirator and to the remaining solution was added 1 ml of the same copper reagent as used in Example 1. The mixture was shaken for 5 min. and centrifuged at 3000 rpm for 5 min. 0.5 ml of a solution was taken from the upper layer and to the solution was added 0.5 ml of the same color developing agent as used in Example 1.
The resulting solutions for control and test samples were measured for the absorbance at 480 nm (A480) using a photometer to determine the amount of the free fatty acids as formed, i.e., the activity of the porcine pancreatic lipase. […]
Lysine oligomers having a degree of polymerization of 2-5 as shown in Table 6 below were prepared using a peptide synthesizer (Biolynx 4170, LKB-Pharmacia Co., Ltd.). Each of the oligomers was purified by high performance liquid chromatography. Each of the purified oligomers was added to distilled water to make up to 1 μmol/ml. […] lysine oligomer-containing solutions were thus prepared.
50 μl of Tris buffer was added to the substrate to prepare an emulsion for control sample. Each 50 μof the lysine oligomer-containing solutions as prepared above was added to 100 μl of the substrate to prepare six emulsions for test sample. After incubating the emulsions for 5 min., there was added 50 μl of a lipase solution containing 100 units of porcine pancreatic lipase per ml as prepared in the same way as in Example 4. The resulting mixture was incubated at 37 ° C. for one hour.

Assay [2] deals with Porcine pancreatic lipase (porcine) (UniProt P00591).
Assay [3] addresses Cholesterol esterase isolated from porcine pancreas (porcine).
Assay [4] has as its target Porcine pancreatic lipase (porcine) (UniProt P00591). This is another data set of the same source.
Assay [5] shares this target. This is another data set of the same source.
Assay [6] has the same target. This is another data set of the same source.
In assay [7] the target is T1, porcine pancreatic lipase. Nature of the assay: Assay of lipase inhibitory activity of proteins (olive oil emulsion with sodium cholate, potassium phosphate buffer pH 6.8). Conditions: for Activity of porcine pancreatic lipase (%): protein solution 4 mg/ml, % of control Abs480, sodium cholate present, 37° C., one hour; for Activity of porcine pancreatic lipase: % of control. Format: biochemical. Here is the method: 250 mg of an olive oil, 21.5 mg of sodium cholate as a bile acid component and 30 mg of phosphatidylcholine were added to 5 ml of a 300 mM potassium phosphate buffer solution at pH 6.8 (called hereafter "potassium phosphate buffer").
as §1
Porcine pancreatic lipase (manufactured by Sigma Co., Ltd.) was added to the potassium phosphate buffer solution to prepare a lipase solution containing 100 units porcine pancreatic lipase per ml.
as §2
50 μl of potassium phosphate buffer was added to the substrate to prepare an emulsion for control sample. Each 50 μl of the protein(polypeptide)-containing solutions as prepared above was added to 100 μl of the substrate to prepare six emulsions for test samples. All of the emulsions were incubated for 5 min. To each of those emulsions was added 50 μl of the lipase solution as prepared above. The resulting mixture was incubated at 37° C. for one hour, subsequently to which were added 3 ml of an extraction solvent (chloroform:methanol:n-heptane=49:1:49). After being shaken for 5 min., the mixture was centrifuged at 3000 rpm for 5 min. The upper layer was removed with an aspirator and to the remaining solution was added 1 ml of a copper reagent (0.45M triethanol amine, 0.05N acetic acid, 3,4% copper sulfate pentahydrate and 20% sodium chloride). The mixture was shaken for 5 min. and centrifuged at 3000 rpm for 5 min. 0.5 ml of a solution was taken from the upper layer and to the solution was added 0.5 ml of a color developing agent (a solution of 0.1% bathocuproine and 0.05% butyl hydroxyanisole in the above extraction solvent).
The resulting solutions for control and test samples were measured for the absorbance at 480 nm (A480) using a photometer to determine the amount of the free fatty acids as formed, i.e., the activity of the porcine pancreatic lipase.

In assay [8] the target is cholesterol esterase isolated from porcine pancreas (Sus scrofa, UniProt A0A286ZKB1). Conditions: protein solution 4 mg/ml; % of control Abs480; sodium cholate present; 37° C., one hour. Here is the method:
as §2
as §3, with “potassium phosphate” for “Tris”, “Each 50 ml of the protein(polypeptide)-containing solutions as prepared above was added to 100 μl of the substrate to prepare six emulsions for test sample.” left out

[9] abbreviates: lysine oligomer solution 1 μmol/ml, % of control.
Where [10] appears, read: solution of 1 mg in 10 ml Tris buffer, % of control Abs480, sodium cholate present.

cholesterol esterase isolated from porcine pancreas, sequence (A0A286ZKB1 1-682): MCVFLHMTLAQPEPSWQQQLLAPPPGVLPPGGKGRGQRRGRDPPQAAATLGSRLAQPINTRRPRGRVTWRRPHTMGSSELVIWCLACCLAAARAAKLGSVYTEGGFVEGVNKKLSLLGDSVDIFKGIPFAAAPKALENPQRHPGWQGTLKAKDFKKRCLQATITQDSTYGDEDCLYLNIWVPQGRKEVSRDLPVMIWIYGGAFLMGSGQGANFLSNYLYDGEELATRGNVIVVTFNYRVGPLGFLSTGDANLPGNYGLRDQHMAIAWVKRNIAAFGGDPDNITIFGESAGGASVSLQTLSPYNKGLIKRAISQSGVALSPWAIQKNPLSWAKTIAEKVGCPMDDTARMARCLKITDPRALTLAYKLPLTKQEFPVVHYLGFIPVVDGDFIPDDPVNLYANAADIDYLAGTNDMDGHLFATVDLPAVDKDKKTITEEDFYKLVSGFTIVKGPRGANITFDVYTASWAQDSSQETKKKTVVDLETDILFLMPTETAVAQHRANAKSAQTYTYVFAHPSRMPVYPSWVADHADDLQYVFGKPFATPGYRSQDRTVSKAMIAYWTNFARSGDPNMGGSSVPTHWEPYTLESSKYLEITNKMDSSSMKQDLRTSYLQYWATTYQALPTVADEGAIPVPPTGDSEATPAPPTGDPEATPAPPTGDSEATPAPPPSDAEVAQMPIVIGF

Consider `NCCCC[C@H](NC(=O)[C@@H](N)CCCCN)C(=O)O` [α-(L-lysine)2], for which the “Activity of porcine pancreatic lipase (%)” value in assay [1] (setting [9]) was determined as 103.6%.

`NCCCC[C@H](NC(=O)[C@H](CCCCN)NC(=O)[C@H](CCCCN)NC(=O)[C@@H](N)CCCCN)C(=O)O` [α-(L-lysine)4] (H-KKKK-OH): in assay [1] (setting [9]), the “Activity of porcine pancreatic lipase (%)” value is recorded as 103.8%.

`NCCCC[C@H](N)C(=O)NCCCC[C@H](N)C(=O)NCCCC[C@H](N)C(=O)O` [ε-(L-lysine)3]: the “Activity of porcine pancreatic lipase (%)” value in assay [1] (setting [9]) worked out at 89.0%.

Regarding `NCCCC[C@H](N)C(=O)NCCCC[C@H](N)C(=O)NCCCC[C@H](N)C(=O)NCCCC[C@H](N)C(=O)O` [ε-(L-lysine)4], the “Activity of porcine pancreatic lipase (%)” value in assay [1] (setting [9]) is 53.8%.

Regarding `NCCCC[C@H](N)C(=O)NCCCC[C@H](N)C(=O)NCCCC[C@H](N)C(=O)NCCCC[C@H](N)C(=O)NCCCC[C@H](N)C(=O)O` [ε-(L-lysine)5], the “Activity of porcine pancreatic lipase (%)” value in assay [1] (setting [9]) is given as 3.1%.

“Bovine serum albumin (A7030, Sigma Co., Ltd., U.S.A.) (from UniProt P02769)”: the Activity of porcine pancreatic lipase (%) in assay [2] was 105 % of control. Also, in assay [3], the Activity of cholesterol esterase (%) is 120 % of control.

With Histone H2A (H6881, Sigma Co., Ltd.), in assay [4], the Activity of porcine pancreatic lipase (%), Tris buffer was 3.7 % of control.

Consider Histone H3 (H4380, Sigma Co., Ltd.), for which the Activity of porcine pancreatic lipase (%), Tris buffer in assay [4] was 2.3 % of control.

With KKKKK [α-(L-lysine)5], the “Activity of porcine pancreatic lipase (%)” value in assay [1] (setting [9]) was 2.1%.

With “Ovalbumin (A5503, Sigma Co., Ltd.) (from UniProt P01012)”, the Activity of porcine pancreatic lipase (%) in assay [2] is 107 % of control. Further, the Activity of cholesterol esterase (%) in assay [3] is 93.6 % of control.

“Poly-L-arginine (P3892, Sigma Co., Ltd.) (peptide)”: in assay [4], the Activity of porcine pancreatic lipase (%), Tris buffer was 16.5 % of control.

For Protamine, the “Activity of porcine pancreatic lipase (%)” value in assay [1] (setting [10]) came to 1.3%.

On to “Protamine (P4005, Sigma Co., Ltd., U.S.A.)”, for which, in assay [4], the Activity of porcine pancreatic lipase (%), Tris buffer was 1.3 % of control.

For poly-L-arginine, the “Activity of porcine pancreatic lipase (%)” value in assay [1] (setting [10]) was determined as 16.5%.

As for α2-purothionin (SEQ ID NO:2) (peptide), the Activity of porcine pancreatic lipase (%) in assay [2] was 0 % of control.

On to α-(L-lysine)2 (peptide), for which, in assay [5], the Activity of porcine pancreatic lipase (%) is 104 % of control.

With α-poly-D-lysine hydrobromide, the “Activity of porcine pancreatic lipase” value in assay [1] is 1.1.

For “α-poly-D-lysine hydrobromide (P7886, Sigma Co., Ltd.) (peptide)”, the Activity of porcine pancreatic lipase (Example 6, 1 mg/ml solution) in assay [6] is 1.1 % of control.

Turning to “α-poly-L-lysine (3075, Peptide Research Co., Ltd.)”, the Activity of porcine pancreatic lipase (%), Tris buffer in assay [4] is 6.9 % of control. Besides, in assay [6], the Activity of porcine pancreatic lipase (Example 6, 1 mg/ml solution) is 1.6 % of control.

In the case of α-poly-L-lysine hydrochloride, the “Activity of porcine pancreatic lipase” value in assay [1] was 1.6. The “Activity of porcine pancreatic lipase (%)” value in assay [1] (setting [10]) stood at 6.9%.

Turning to “β-Lactoglobulin: β-lactoglobulin (L0130, Sigma Co., Ltd.), non-basic comparison protein [reference compound]”, the “Activity of porcine pancreatic lipase (%)” value in assay [7] turned out to be 103.9%. Moreover, in assay [8], the “Activity of cholesterol esterase (%)” value turned out to be 89.9%.

As for “β-Purothionin: purified β-purothionin (SEQ ID NO:3) isolated from the crude wheat purothionin mixture; misprinted α-Purothionin in Table 3 (KSCCKSTLGRNCYNLCRARGAQKLCANVCRCKLTSGLSCPKDFPK)”, the “Activity of porcine pancreatic lipase” value in assay [7] (concentration of 0.04 mg/ml, separate experiment) is listed as 5.2%; in assay [7] (solution diluted to protein concentration of 0.2 mg/ml) it was 0%. For the same molecule, the “Activity of porcine pancreatic lipase (%)” value in assay [7] stood at 0%; in assay [1] (setting [10]) it was 1.3%.

In the case of “β-lactoglobulin (L0130, Sigma Co., Ltd.) (from UniProt P02754)”, the Activity of porcine pancreatic lipase (%) in assay [2] was 104 % of control. In assay [3], the Activity of cholesterol esterase (%) is 89.9 % of control.

For ε-(L-lysine)3 (peptide), in assay [5], the Activity of porcine pancreatic lipase (%) was 89 % of control.

With ε-(L-lysine)4 (SEQ ID NO: 6) (peptide), the Activity of porcine pancreatic lipase (%) in assay [5] is 53.8 % of control.

In the case of ε-(L-lysine)5 (SEQ ID NO: 7) (peptide), in assay [5], the Activity of porcine pancreatic lipase (%) is 3.1 % of control.

Turning to KKKK [α-(L-lysine)4 (SEQ ID NO: 4)], the Activity of porcine pancreatic lipase (%) in assay [5] was 104 % of control.

B1: Ovalbumin: ovalbumin (A5503, Sigma Co., Ltd.), non-basic comparison protein (protein, UniProt P01012 2-386, looked up)
Ovalbumin: GSIGAASMEFCFDVFKELKVHHANENIFYCPIAIMSALAMVYLGAKDSTRTQINKVVRFDKLPGFGDSIEAQCGTSVNVHSSLRDILNQITKPNDVYSFSLASRLYAEERYPILPEYLQCVKELYRGGLEPINFQTAADQARELINSWVESQTNGIIRNVLQPSSVDSQTAMVLVNAIVFKGLWEKAFKDEDTQAMPFRVTEQESKPVQMMYQIGLFRVASMASEKMKILELPFASGTMSMLVLLPDEVSGLEQLESIINFEKLTEWTSSNVMEERKIKVYLPRMKMEEKYNLTSVLMAMGITDVFSSSANLSGISSAESLKISQAVHAAHAEINEAGREVVGSAEAGVDAASVSEEFRADHPFLFCIKHIATNAVLFFGRCVSP
For B1, the “Activity of porcine pancreatic lipase (%)” value in assay [7] came out at 107.0%. In assay [8], the “Activity of cholesterol esterase (%)” value is listed as 93.6%.

Take KKKKK [α-(L-lysine)5 (SEQ ID NO: 5)]: the Activity of porcine pancreatic lipase (%) in assay [5] was 2.1 % of control.

For the origin of these results see patent US5376640A, “Lipolytic enzyme inhibitors” (Nisshin Flour Milling Co., Ltd., priority 1989, dated 1994).
